Three substances from patent publication US20120244563A1 can be followed below.

Among the targets are Immunoglobulin A; α2-Macroglobulin; Immunoglobulin M; Immunoglobulin G.
Common to all, as to test: ELISA; coated glycoprotein, biotin-labeled lectin 1 µg/mL; grade of A450 reaction value (Low 0.1 to 0.2, Moderate 0.2 to 0.5, High 0.5 or more)
For orientation: An ELISA detects its analyte on a solid surface through an enzyme-linked reagent.

The target in experiment [1] is α-Fetoprotein L3 (Homo sapiens (Human)) (UniProt P02771).
The target of experiment [2] is α-Fetoprotein (Homo sapiens (Human)) (UniProt P02771).
The target in experiment [3] is Prostate-specific antigen (Homo sapiens (Human)) (UniProt P07288).

Some results are limits rather than exact numbers.

Sequence of α-Fetoprotein L3 (Homo sapiens (Human)) (P02771 19-609 limits assumed, form in doubt): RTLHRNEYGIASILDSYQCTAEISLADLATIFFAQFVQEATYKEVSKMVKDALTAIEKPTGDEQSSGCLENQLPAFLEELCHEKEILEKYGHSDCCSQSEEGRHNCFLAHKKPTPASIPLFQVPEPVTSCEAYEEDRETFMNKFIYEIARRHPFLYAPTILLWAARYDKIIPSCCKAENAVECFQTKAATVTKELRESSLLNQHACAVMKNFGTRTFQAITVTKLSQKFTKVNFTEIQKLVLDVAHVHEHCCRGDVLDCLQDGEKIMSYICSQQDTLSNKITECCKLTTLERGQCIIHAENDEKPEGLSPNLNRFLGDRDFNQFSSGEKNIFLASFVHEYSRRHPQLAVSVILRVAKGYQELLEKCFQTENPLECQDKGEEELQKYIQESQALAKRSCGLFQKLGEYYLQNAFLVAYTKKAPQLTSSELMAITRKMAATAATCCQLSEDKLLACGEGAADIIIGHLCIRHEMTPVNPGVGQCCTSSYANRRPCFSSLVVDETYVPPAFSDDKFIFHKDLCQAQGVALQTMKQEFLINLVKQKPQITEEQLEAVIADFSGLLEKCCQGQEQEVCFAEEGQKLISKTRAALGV
Sequence of Prostate-specific antigen (Homo sapiens (Human)) (P07288 25-261 limits assumed, form in doubt): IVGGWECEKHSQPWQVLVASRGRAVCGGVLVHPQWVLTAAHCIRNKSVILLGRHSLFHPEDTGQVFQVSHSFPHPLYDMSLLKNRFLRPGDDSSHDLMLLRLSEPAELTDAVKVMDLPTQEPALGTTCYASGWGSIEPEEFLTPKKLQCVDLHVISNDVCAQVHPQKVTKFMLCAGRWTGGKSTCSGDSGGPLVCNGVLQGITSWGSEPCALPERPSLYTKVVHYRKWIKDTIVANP
Sequence of α-Fetoprotein (Homo sapiens (Human)) (P02771 19-609 limits assumed, form in doubt): as the sequence (P02771 19-609 limits assumed, form in doubt) above
Sequence of α2-Macroglobulin (P01023 24-1474): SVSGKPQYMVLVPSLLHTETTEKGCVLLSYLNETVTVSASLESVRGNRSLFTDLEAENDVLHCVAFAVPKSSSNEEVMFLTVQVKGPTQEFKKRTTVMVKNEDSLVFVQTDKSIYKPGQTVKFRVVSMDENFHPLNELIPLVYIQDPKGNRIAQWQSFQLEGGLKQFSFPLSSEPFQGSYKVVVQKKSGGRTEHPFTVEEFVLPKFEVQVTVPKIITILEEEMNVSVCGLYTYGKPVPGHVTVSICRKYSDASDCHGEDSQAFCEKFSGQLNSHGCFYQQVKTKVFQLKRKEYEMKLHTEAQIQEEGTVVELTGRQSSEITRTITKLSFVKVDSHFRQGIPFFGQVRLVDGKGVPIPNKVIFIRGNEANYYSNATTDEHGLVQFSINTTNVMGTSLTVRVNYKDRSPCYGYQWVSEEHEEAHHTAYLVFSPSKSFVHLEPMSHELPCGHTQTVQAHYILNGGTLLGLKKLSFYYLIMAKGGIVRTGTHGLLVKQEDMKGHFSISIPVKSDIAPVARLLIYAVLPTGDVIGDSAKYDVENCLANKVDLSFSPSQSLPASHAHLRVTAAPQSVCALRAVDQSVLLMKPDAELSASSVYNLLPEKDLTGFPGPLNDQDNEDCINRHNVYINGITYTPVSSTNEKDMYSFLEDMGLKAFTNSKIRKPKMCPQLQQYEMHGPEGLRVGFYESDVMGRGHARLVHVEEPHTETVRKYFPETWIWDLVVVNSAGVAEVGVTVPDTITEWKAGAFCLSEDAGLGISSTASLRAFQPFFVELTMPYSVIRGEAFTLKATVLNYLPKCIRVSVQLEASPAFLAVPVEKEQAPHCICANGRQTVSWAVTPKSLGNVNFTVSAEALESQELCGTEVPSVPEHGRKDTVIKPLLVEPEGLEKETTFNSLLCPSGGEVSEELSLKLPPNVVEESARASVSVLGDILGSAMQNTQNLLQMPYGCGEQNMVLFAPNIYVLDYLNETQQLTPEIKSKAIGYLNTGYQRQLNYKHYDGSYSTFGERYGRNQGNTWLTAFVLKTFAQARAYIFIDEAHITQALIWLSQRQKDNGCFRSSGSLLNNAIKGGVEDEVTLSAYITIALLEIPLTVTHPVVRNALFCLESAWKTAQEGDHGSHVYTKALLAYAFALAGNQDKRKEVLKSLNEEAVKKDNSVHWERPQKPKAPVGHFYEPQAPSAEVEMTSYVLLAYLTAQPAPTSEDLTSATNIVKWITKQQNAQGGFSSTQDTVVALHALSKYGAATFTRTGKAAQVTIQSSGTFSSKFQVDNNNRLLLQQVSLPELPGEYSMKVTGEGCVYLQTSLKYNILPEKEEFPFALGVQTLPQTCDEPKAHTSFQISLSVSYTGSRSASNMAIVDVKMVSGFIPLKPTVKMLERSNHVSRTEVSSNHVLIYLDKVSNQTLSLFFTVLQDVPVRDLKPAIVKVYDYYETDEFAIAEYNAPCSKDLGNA

With “Aleuria aurantia lectin (from UniProt P18891 2-313)”, the results for the reaction value (absorbance at 450 nm minus blank) in experiment [1], in experiment [2] and in experiment [3] were over 0.5 od, 0.2 to 0.5 od and 0.2 to 0.5 od, respectively.

The substance “Lens culinaris lectin (from UniProt P02870 31-210; P02870 218-269)” returned a reaction value (absorbance at 450 nm minus blank) in experiment [1] of over 0.5 od.

In the case of Pholiota terrestris Overholts lectin, the reaction value (absorbance at 450 nm minus blank) was 0.2 to 0.5 od with Immunoglobulin A; over 0.5 od in experiment [1]; 0.2 to 0.5 od in the experiment with α2-Macroglobulin; over 0.5 od in experiment [3]; 0.1 to 0.2 od with Immunoglobulin M; 0.1 to 0.2 od with Immunoglobulin G.
